# Source: the Human Domainome abundance scans (Beltran et al. 2025)
# ± gives the uncertainty stated by the source.
# B1: Transcription factor SOX-4, residues 60 to 127; numbered along this chain, Q06945 (parent)
# chain: KRPMNAFMVWSQIERRKIMEQSPDMHNAEISKRLGKRWKLLKDSDKIPFIREAERLRLKHMADYPDYK
# Variants of: B1
# Assay: abundance fitness (aPCA) (normalised: wild type 0, dead -1); higher = more abundant; growth selection in yeast, the domain comes from the species named
# Details: Homo sapiens
row,Variant,abundance fitness
1,A6T,-0.797 ± 0.091
2,A6S,-0.495 ± 0.05
3,A6P,-0.111 ± 0.092
4,A6H,-1.12 ± 0.36
5,R55L,-0.326 ± 0.046
6,R55F,-0.38 ± 0.059
7,R55Y,-0.474 ± 0.1
8,R55N,-0.22 ± 0.07
9,R55W,-0.44 ± 0.047
10,R55Q,-0.188 ± 0.08
11,R55H,-0.284 ± 0.073
12,R55D,-0.136 ± 0.07
13,V9R,-1 ± 0.14
14,V9K,-0.978 ± 0.29
15,V9C,-0.258 ± 0.16
16,M4I,0.047 ± 0.07
17,M4N,-0.265 ± 0.11
18,M4T,-0.077 ± 0.065
19,K32S,-0.067 ± 0.04
20,K32I,-0.225 ± 0.063
21,K32A,-0.108 ± 0.047
22,K32Y,-0.062 ± 0.053
23,K32G,-0.361 ± 0.038
24,K32D,-0.012 ± 0.044

row,Variant,abundance fitness
1,K32F,-0.281 ± 0.045
2,S44D,-0.217 ± 0.14
3,S44Q,-0.073 ± 0.073
4,S44W,-0.41 ± 0.099
5,S44R,-0.264 ± 0.066
6,S44H,-0.205 ± 0.1
7,S44F,-0.442 ± 0.13
8,S44N,-0.23 ± 0.18
9,S44A,0.035 ± 0.053
10,A53G,-0.684 ± 0.08
11,A53M,-0.585 ± 0.088
12,A53L,-0.856 ± 0.17
13,A53I,-0.662 ± 0.23
14,A53N,-0.275 ± 0.24
15,A53S,-0.431 ± 0.055
16,M19R,-0.236 ± 0.05
17,M19C,-0.175 ± 0.045
18,M19T,-0.338 ± 0.098
19,M19W,-0.326 ± 0.068
20,M19S,-0.212 ± 0.039
21,M19K,0.007 ± 0.048
22,K46T,-0.694 ± 0.06
23,K46M,-0.841 ± 0.074
24,K46W,-0.95 ± 0.11

row,Variant,abundance fitness
1,K46Q,-0.701 ± 0.14
2,K46F,-0.995 ± 0.11
3,K46S,-0.901 ± 0.066
4,E54N,-0.158 ± 0.041
5,E54V,-0.696 ± 0.055
6,E54R,-0.469 ± 0.051
7,E54G,-0.514 ± 0.044
8,E54W,-0.643 ± 0.09
9,I18A,-0.484 ± 0.21
10,I18F,-0.351 ± 0.15
11,I18K,-0.892 ± 0.17
12,I18T,-0.701 ± 0.22
13,I18C,-0.278 ± 0.45
14,K42L,-0.368 ± 0.055
15,K42S,0.13 ± 0.053
16,K42W,-0.786 ± 0.13
17,K42N,-0.212 ± 0.17
18,K42C,-0.28 ± 0.2
19,K42M,-0.465 ± 0.1
20,K42V,-0.372 ± 0.074
21,K1S,-0.011 ± 0.15
22,K1W,-0.336 ± 0.13
23,K1A,-0.193 ± 0.098
24,L58C,-0.247 ± 0.058

row,Variant,abundance fitness
1,L58R,0.007 ± 0.04
2,L58Y,-0.286 ± 0.043
3,L58G,0.015 ± 0.034
4,L58H,-0.018 ± 0.062
5,L58D,-0.039 ± 0.047
6,K36N,0.04 ± 0.24
7,K36I,0.143 ± 0.36
8,K36R,-0.075 ± 0.061
9,K36E,0.325 ± 0.071
10,K36F,-0.053 ± 0.13
11,K36P,-0.722 ± 0.18
12,K36V,0.057 ± 0.063
13,K36S,-0.098 ± 0.11
14,K36G,-0.416 ± 0.08
15,K36H,-0.141 ± 0.15
16,K36A,-0.019 ± 0.071
17,N27D,0.147 ± 0.045
18,N27T,-0.049 ± 0.051
19,N27S,0.07 ± 0.049
20,N27C,-0.164 ± 0.055
21,N27W,-0.019 ± 0.057
22,P65T,-0.064 ± 0.075
23,P65R,-0.174 ± 0.056
24,P65V,-0.097 ± 0.068

row,Variant,abundance fitness
1,P65K,0.018 ± 0.07
2,A28G,-0.166 ± 0.054
3,A28V,-0.169 ± 0.063
4,D43G,-0.27 ± 0.046
5,D43K,-0.273 ± 0.06
6,D43N,-0.294 ± 0.053
7,D43C,-0.37 ± 0.058
8,D43P,-0.137 ± 0.067
9,D63I,-0.181 ± 0.045
10,D63F,-0.283 ± 0.05
11,D63K,-0.128 ± 0.06
12,D63S,-0.153 ± 0.036
13,Q12E,0.05 ± 0.069
14,Q12G,-0.265 ± 0.05
15,Q12P,-0.812 ± 0.15
16,Q12I,-0.101 ± 0.15
17,Q12L,-0.194 ± 0.055
18,Q12W,-0.662 ± 0.1
19,Q12H,-0.116 ± 0.23
20,Q12V,-0.434 ± 0.092
21,K68Y,-0.125 ± 0.2
22,K68M,-0.23 ± 0.31
23,K68L,-0.297 ± 0.42
24,K68T,-0.436 ± 0.45

row,Variant,abundance fitness
1,N5A,-0.559 ± 0.1
2,N5V,-0.828 ± 0.16
3,N5K,-0.553 ± 0.11
4,N5H,-0.632 ± 0.18
5,G35H,0.178 ± 0.051
6,G35R,0.19 ± 0.037
7,G35Q,0.302 ± 0.2
8,G35N,0.015 ± 0.056
9,G35T,0.15 ± 0.049
10,G35Y,0.119 ± 0.05
11,G35S,0.173 ± 0.035
12,G35D,0.116 ± 0.05
13,F49G,-0.702 ± 0.092
14,K39R,-0.187 ± 0.047
15,K39Y,-0.263 ± 0.076
16,K39L,-0.244 ± 0.048
17,K39C,-0.329 ± 0.044
18,K39A,0.093 ± 0.063
19,K39P,-0.783 ± 0.2
20,K39T,-0.216 ± 0.064
21,K39H,-0.506 ± 0.11
22,K39I,-0.384 ± 0.037
23,W10E,-0.964 ± 0.28
24,W10G,-0.954 ± 0.2

row,Variant,abundance fitness
1,W10F,-0.155 ± 0.12
2,W10A,-1.03 ± 0.21
3,W10P,-0.751 ± 0.13
4,W10C,-1.03 ± 0.43
5,W10L,-0.999 ± 0.12
6,W10Q,-0.921 ± 0.33
7,Q21R,-0.267 ± 0.066
8,S31Q,-0.038 ± 0.078
9,S31R,-0.137 ± 0.032
10,S31V,-0.021 ± 0.034
11,M25F,-0.614 ± 0.29
12,M25D,-0.397 ± 0.091
13,M25E,-0.323 ± 0.093
14,M25K,-0.216 ± 0.082
15,M25A,-0.019 ± 0.058
16,R57M,-0.135 ± 0.086
17,R57G,-0.247 ± 0.064
18,R57F,0.056 ± 0.22
19,R57H,-0.815 ± 0.41
20,S22H,-0.01 ± 0.061
21,S22Y,0.066 ± 0.054
22,S22W,0.016 ± 0.053
23,S22E,-0.027 ± 0.052
